Laboratory results: patent US20240376151A1, “STAPLED PEPTIDES AND METHODS THEREOF” (FOG PHARMACEUTICALS, INC., priority 2022, published 2024)
Numbered stars: 1 amine (or outer) side, 2 acyl side, 3 side chain; on linkers, the order of the positions; unused ones are H or OH. Bridge positions count the residues as written; N and C are the ends. Ends that are not written are not given here. Phenylene(1,4-NHCOCH2)2 = O=C(C[*:1])Nc1ccc(NC(=O)C[*:2])cc1

Legend:
WWP1 = molecular target: T1, WWP1 (Homo sapiens, UniProt Q9H0M0); test: Naive Library Presenter Screening (phage, NGS), WWP1 (construct not given); format: binding; details: for interaction data at Target Concentration 10: WWP1 target concentration 10 nM; for interaction data at Target Concentration 30: WWP1 target concentration 30 nM; for interaction data at Target Concentration 100: WWP1 target concentration 100 nM; for interaction data at Target Concentration 300: WWP1 target concentration 300 nM; for interaction data at Target Concentration 1000: WWP1 target concentration 1000 nM
T1 construct: GST-TEV (N, cleaved yes); made in house; host or cells: Escherichia coli BL21 (DE3)

WWP2^HECT = molecular target: T2, WWP2^HECT (Homo sapiens, UniProt O00308); test: Naive Library Presenter Screening (phage, NGS), WWP2^HECT; format: binding; details: for interaction data at Target Concentration 10: WWP2 target concentration 10 nM; for interaction data at Target Concentration 30: WWP2 target concentration 30 nM; for interaction data at Target Concentration 100: WWP2 target concentration 100 nM; for interaction data at Target Concentration 300: WWP2 target concentration 300 nM; for interaction data at Target Concentration 1000: WWP2 target concentration 1000 nM
T2 construct: GST-TEV (N, cleaved yes); made in house; host or cells: Escherichia coli BL21 (DE3)
T2 sequence (O00308 492-865): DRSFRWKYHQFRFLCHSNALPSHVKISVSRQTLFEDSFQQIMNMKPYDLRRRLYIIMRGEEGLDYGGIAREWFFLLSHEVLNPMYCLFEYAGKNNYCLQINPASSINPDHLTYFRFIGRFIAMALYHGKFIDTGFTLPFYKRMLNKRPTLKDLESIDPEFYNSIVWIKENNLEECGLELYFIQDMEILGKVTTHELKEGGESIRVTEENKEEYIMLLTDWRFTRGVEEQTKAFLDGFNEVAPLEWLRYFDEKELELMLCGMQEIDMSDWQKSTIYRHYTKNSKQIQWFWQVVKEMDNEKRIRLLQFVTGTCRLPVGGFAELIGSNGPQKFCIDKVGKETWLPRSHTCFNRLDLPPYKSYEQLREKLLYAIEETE

Sequence: DPAATLCNQAANVCALL (linker 7-14 via Phenylene(1,4-NHCOCH2)2)
- interaction data at Target Concentration 10 (WWP1): 0
- interaction data at Target Concentration 30 (WWP1): 0
- interaction data at Target Concentration 100 (WWP1): 132
- interaction data at Target Concentration 300 (WWP1): 145
- interaction data at Target Concentration 1000 (WWP1; second column): 197

Sequence: DPAFHYCTMAANMCHQD (linker 7-14 via Phenylene(1,4-NHCOCH2)2)
- interaction data at Target Concentration 10 (WWP1): 0
- interaction data at Target Concentration 30 (WWP1): 0
- interaction data at Target Concentration 100 (WWP1): 3
- interaction data at Target Concentration 300 (WWP1): 73
- interaction data at Target Concentration 1000 (WWP1; second column): 169

Sequence: DPAFIQCTHAANMCHSS (linker 7-14 via Phenylene(1,4-NHCOCH2)2)
- interaction data at Target Concentration 10 (WWP1): 0
- interaction data at Target Concentration 30 (WWP1): 3
- interaction data at Target Concentration 100 (WWP1): 43
- interaction data at Target Concentration 1000 (WWP1; first column): 336
- interaction data at Target Concentration 1000 (WWP1; second column): 562

Sequence: DPATWDCIWAAERCWRY (linker 7-14 via Phenylene(1,4-NHCOCH2)2 (inferred); not fully specified (C-terminus))
- interaction data at Target Concentration 10 (WWP2^HECT): 0
- interaction data at Target Concentration 30 (WWP2^HECT): 0
- interaction data at Target Concentration 100 (WWP2^HECT): 1
- interaction data at Target Concentration 300 (WWP2^HECT): 4
- interaction data at Target Concentration 1000 (WWP2^HECT; first column): 9
- interaction data at Target Concentration 1000 (WWP2^HECT; second column): 13

Sequence: DPATWDCNVAAHRCWFL (linker 7-14 via Phenylene(1,4-NHCOCH2)2 (inferred); not fully specified (C-terminus))
- interaction data at Target Concentration 10 (WWP2^HECT): 1
- interaction data at Target Concentration 30 (WWP2^HECT): 0
- interaction data at Target Concentration 100 (WWP2^HECT): 12
- interaction data at Target Concentration 300 (WWP2^HECT): 60
- interaction data at Target Concentration 1000 (WWP2^HECT; first column): 40
- interaction data at Target Concentration 1000 (WWP2^HECT; second column): 75

Sequence: DPATWDCQQAAHHCWVL (linker 7-14 via Phenylene(1,4-NHCOCH2)2 (inferred); not fully specified (C-terminus))
- interaction data at Target Concentration 10 (WWP2^HECT): 0
- interaction data at Target Concentration 30 (WWP2^HECT): 0
- interaction data at Target Concentration 100 (WWP2^HECT): 2
- interaction data at Target Concentration 300 (WWP2^HECT): 23
- interaction data at Target Concentration 1000 (WWP2^HECT; first column): 35
- interaction data at Target Concentration 1000 (WWP2^HECT; second column): 66

Sequence: DPATWDCRNAAWLCLLN (linker 7-14 via Phenylene(1,4-NHCOCH2)2 (inferred); not fully specified (C-terminus))
- interaction data at Target Concentration 10 (WWP2^HECT): 0
- interaction data at Target Concentration 30 (WWP2^HECT): 1
- interaction data at Target Concentration 100 (WWP2^HECT): 4
- interaction data at Target Concentration 300 (WWP2^HECT): 8
- interaction data at Target Concentration 1000 (WWP2^HECT; first column): 12
- interaction data at Target Concentration 1000 (WWP2^HECT; second column): 12

Sequence: DPATYYCEAAAETCRFF (linker 7-14 via Phenylene(1,4-NHCOCH2)2 (inferred); not fully specified (C-terminus))
- interaction data at Target Concentration 10 (WWP2^HECT): 37
- interaction data at Target Concentration 30 (WWP2^HECT): 57
- interaction data at Target Concentration 100 (WWP2^HECT): 70
- interaction data at Target Concentration 300 (WWP2^HECT): 94
- interaction data at Target Concentration 1000 (WWP2^HECT; first column): 78
- interaction data at Target Concentration 1000 (WWP2^HECT; second column): 123

Sequence: DPAVWDCRYAAWDCYTN (linker 7-14 via Phenylene(1,4-NHCOCH2)2 (inferred); not fully specified (C-terminus))
- interaction data at Target Concentration 10 (WWP2^HECT): 0
- interaction data at Target Concentration 30 (WWP2^HECT): 0
- interaction data at Target Concentration 100 (WWP2^HECT): 0
- interaction data at Target Concentration 300 (WWP2^HECT): 28
- interaction data at Target Concentration 1000 (WWP2^HECT; first column): 33
- interaction data at Target Concentration 1000 (WWP2^HECT; second column): 15

Sequence: DPAVWECRWAAFQCWLD (linker 7-14 via Phenylene(1,4-NHCOCH2)2 (inferred); not fully specified (C-terminus))
- interaction data at Target Concentration 10 (WWP2^HECT): 0
- interaction data at Target Concentration 30 (WWP2^HECT): 0
- interaction data at Target Concentration 100 (WWP2^HECT): 88
- interaction data at Target Concentration 300 (WWP2^HECT): 86
- interaction data at Target Concentration 1000 (WWP2^HECT; first column): 97
- interaction data at Target Concentration 1000 (WWP2^HECT; second column): 107

Sequence: DPAYHHCLAAADLCSFF
- interaction data at Target Concentration 10 (WWP2^HECT): 59
- interaction data at Target Concentration 30 (WWP2^HECT): 97
- interaction data at Target Concentration 100 (WWP2^HECT): 107
- interaction data at Target Concentration 300 (WWP2^HECT): 147
- interaction data at Target Concentration 1000 (WWP2^HECT; first column): 101
- interaction data at Target Concentration 1000 (WWP2^HECT; second column): 141
